In US20230242902A1, “A HIGHLY ERROR-PRONE […] R[…] FOR TARGETED CONTINUOUS EVOLUTION IN VIVO” (The Regents of the University of California, priority 2017, published 2023):
Residue numbers refer to the chain shown, from its start. In names and notes the source's numbering stands.

B1: WT: wild-type Kluyveromyces lactis DNA polymerase TP-DNAP2, SEQ ID NO:13 (protein, listed as Kluyveromyces lactis)
chain: MNDELAFLNSQIDDYSDDIEFLRTEVFRINRYSKSIYSLMKNSSKEAIKETIEFNKYGQEIHSKIKEKEISLIEAIKLMEKKYKYLRSLNKTKDKSKKKKIHTKDIETLKTIYKTKADFDIRNFKNAETFTYENYSLLIPSEKELIDLIPEIEEDYSYYFYVSLTITGPTIFGGVTRKVPIIDTYGDINKDFYNKIKENITKVLDRVPFYEEKESEIICKKVLITLTVNKWESIDKWYKNVKSKSKKFKDFTLFLASDTSKNCVQQCVEYLGGKWNTNYSLEKMIPQQKIVTYIPLLMDIQYVQSMEDLISDFDEPNTDCKNIARLLKWNGHMGVITKIDKDVKINRIQRKRIIDVENKEVKEVFFDIESFSDETKHQIPYLICWSYLGELYYRTGKNCIKEFVEEILSYNVDIILYAWYGSGYDYQHVLPYMKSKCIKDKYIIKNNMITYGELYYENAIIYLKDPYLFILTSLDKASKAFNVINKGEFPHSIIHSWEDLNKILPNWVKIQKRMIEYKDDNKLNIYYKNIEIFENDRNYNTILENAIEYCKVDVLAMEKVWIKFKKLLEKNLNITVSVKTFTLSQLSMKIMESKLPKYVKLYVPTLEEYSKIRNAIYGGRVISKNGIYEENIVYADVVSLYPSAMKLLKHSYGKPKLVDYIDFEKHGIYRVTLLNKHDQEPKNYLNFVPRRINRKLTWEWFKIHEGWYHTYDLIIAKSEGFDIYCHEGFEYPEKDYIFNDFIDTLYSMKETHTACSCEEQPCPIRMVAKIALNGGGYGKFVQKPIDKEIYIVKRDVVAGECDKLQENENGEICIGKRLVKRPLFYNLDSENYDKMIIEKEDEPIYSTQCGISILSASRYRLYKLCKQFENIDIIYSDTDSIFVKQKSVDWELFKSKCGSELGQLDSTIDDTKNAIISKMYIGGAKMYAFEYLNNKNKLITKLHCKGVPNYMLSLNQFKYLMESPDNTIAYKFEIIRRKLVNVITKDLIKDIKQT
B2: TP-DNAP1-4-2: TP-DNAP1 variant (L477V, L640Y, I777K, W814N), encoded by SEQ ID NO:11 (protein, listed as Kluyveromyces lactis)
chain: MDYKDKALNDLRNVYADFDSLPLDFRQILIKDRATLLQKEDVEKKILERQEDAKKYAEYLKQSEIPERISLPNIKRHKGVSISFEETSEDMVLEPRPFIFDGLNIRCFRRETIFSLKNKILNMVKESSSFKNVSRQSVSFMYFKIFNKGKVIASTKSVNIYEDKIDERLEDLCNNFDDVLKKIIDVTYGYESLFVSETYSYVIFYAKSIYFPQPRCVNNWGNNIPNILTFDSFKLFTANKNNVSCIKQCSRFLWQKDFNTLEEMIEYKNGNICIVTPQLHINDVRDIKSFNDIRLYSESPIKTFSVIDNTITYLFYFKEHLGVIFNITKSRHDRRVTKFSPLSKFSDVKNITVCFDIESYFDPEKESNQVNIPFICCASIIYNKVIGNIVDFEGRDCVAQMIEYVVDICGELNISSVELIAHNGGGYDFHYILSSMYNPAAIKNILIRNNSFISFNFAHDGVKFSVKDSYSFLLCSVANASKAFLNEETFKKTDFPHHDLKTADDLYKVYKEWSSVNTEINHVVEKEKLLITSEHIVNFTKNDKSKTLIEWSKDYCRNDVLVLSKVWLEFKNAVEDIFNCELVDQTMTLAGLSYKLFQANMPFDVELRHPNKEDYFNMREALIGGRCISVNGIYKDVLCYDVKSLYPASMAFYDQPYGSFKRVSSRPKDELGIYYVRVTPNRNNKSNFFPIRSHNKITYNNFEESTYIAWYTNVDIDIGLSEGHNIEYIPFDSYGNIGYSWSKKGKIFEKYIKDVLYKLKIKYEKQNNKVKRNVIKKIMNSLWGKFAQKWVNFEYFIKSEDDIDFESEEAYKINDTDFMLIKKIKESTYSSKPIQNGVFTLSWARYHMKSIWDAGAKEGAECIYSDTDSIFVHKEHFKKNAKFMLNGLKVPIIGSEVGQLELECEFDKLLCAGKKQYMGFYTYFQDGKPCIKEKKRFKGIPSNYIIPELYAHLLSGADKEAKIQFLKFRREWGSVKGYIENKTVKAT
B3: w.t.: wild-type Kluyveromyces lactis DNA polymerase TP-DNAP1, SEQ ID NO:1 (protein, listed as Kluyveromyces lactis)
chain: B2 chain with V477L, Y640L, K777I, N814W

Key:
Type in all cases: cell-based, S. cerevisiae
p2 = p2 copy number by mKate2 fluorescence calibrated with qPCR; conditions: GA-Y021
Method: To precisely measure p1 and p2 per-base substitution mutation rates, several modifications were made to the small-scale protocol. First, 36 replicates were performed for reconfirmation of candidate TP-DNAP2 mutators, and 48 replicates for genomic and mutual orthogonality experiments. Titers were also determined for each strain after spot plating by pooling the residual volume from 4 replicates and plating dilutions on YPD. The expected number of LEU2 functional mutants (m) was determined by the Ma-Sandri-Sarkar maximum likelihood estimator (as calculated by the FALCOR tool and corrected for partial plating (Foster, 2006, Methods Enzymol, 409:195-213; Sarkar et al., 1992, Genetica, 85:173-179; Hall et al., 2009, Bioinformatics, 25:1564-1565). The mean mKate2 fluorescence was determined from 50,000 event counts on Attune™ NxT Flow Cytometer and converted to p2 copy number by using a calibration curve. To determine per-base substitution rates, the corrected m was normalized to the average cell titer, the p2 copy number, and the target size for functional leu2* reversion (2.33 bp). […]
A standard curve relating p2 copy number to mKate2 fluorescence was prepared by combining quantitative PCR with flow cytometry. […] All extracts were diluted 4000-fold for use in two distinct qPCR reactions, one to quantify p2-encoded leu2* and the other to quantify the genomic copy of LEU3. […]

p1 = p1 copy number by p1-encoded mKate2 fluorescence
Summary of the method: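 Read-out is mKate2 fluorescence of saturated OR-Y24 cultures, measured by flow cytometry or by plate reader with OD600 normalization. Flow values were converted by a qPCR-derived linear calibration; plate values were scaled to a w.t. TP-DNAP1 control.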

genomic URA3 gene = experiment: Fluctuation tests of the genomic URA3 gene in the presence of TP-DNAP1 variants; conditions: for Yeast genomic substitution mutation rate: URA3 locus, strain harbouring p1 and the TP-DNAP1 variant
Method: Fluctuation tests of the genomic URA3 gene were performed to determine genomic per-base substitution rates, as previously described (Ravikumar et al., 2014). Fluctuation data were analyzed by the maximum likelihood method, as described for large-scale p1 fluctuation tests. Phenotypic mutation rates were divided by the target size for loss of function of URA3 via base pair substitution (Lang et al., 2008), to yield per-base substitution rates. 95% confidence intervals were similarly scaled by these factors. All data related to genomic URA3 fluctuation tests are fully described in Table 5.

Row | Molecule | p2 copy number per cell (p2) | p1 copy number (p1; sustained by TP-DNAP1 variant) | genomic mutation rates in the presence of p1 replication (genomic URA3 gene) | Yeast genomic substitution mutation rate (genomic URA3 gene) | Fold-change of p1 copy number over w.t. (p1; G410 (w.t.) background) | Fold-change of p1 copy number over w.t. (p1; variant additionally carrying G410H)
1 | B1 | 128 |  |  |  |  | 
2 | B2 |  | ~5 | remain unchanged | 1.98 × 10^−10 s.p.b. |  | 
3 | B3 |  |  |  | 8.73 × 10^−11 s.p.b. | 1.0 ± 0.27 fold | 1.53 ± 0.33 fold
